Reference: patent publication US20180030090A1 (AGENCY FOR SCIENCE TECHNOLOGY AND RESEARCH, published 2018)
Bridges are numbered along the chain shown (N, C = ends). [ ]: non-standard residue; d: D form. R8 = C=CCCCCCC[C@@](C)(N)C(=O)O; S5 = C=CCCC[C@](C)(N)C(=O)O; Ahx = NCCCCCC(=O)O

Experiments:
[1] = target: Mdm2 in murine T22 cells (murine, UniProt P23804 1-489, limits assumed); test: cell-based or functional assay
[2] = target: T1, Mdm2 (1-125) (UniProt Q00987 1-125); test: competitive fluorescence anisotropy, displacement of FAM-labelled 12-1 peptide from Mdm2 (1-125); apparent Kd
T1 construct: range 1-125; also called N-terminal domain of Mdm2; Mdm2 (1 to 125)
T1 sequence (Q00987 1-125 limits assumed): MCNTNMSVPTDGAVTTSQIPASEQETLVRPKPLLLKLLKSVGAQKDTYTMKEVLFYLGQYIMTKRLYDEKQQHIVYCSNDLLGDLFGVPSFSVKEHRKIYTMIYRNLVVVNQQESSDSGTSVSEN
Description: All titrations were carried out in triplicate.

Chain of Mdm2 in murine T22 cells (P23804 whole entry): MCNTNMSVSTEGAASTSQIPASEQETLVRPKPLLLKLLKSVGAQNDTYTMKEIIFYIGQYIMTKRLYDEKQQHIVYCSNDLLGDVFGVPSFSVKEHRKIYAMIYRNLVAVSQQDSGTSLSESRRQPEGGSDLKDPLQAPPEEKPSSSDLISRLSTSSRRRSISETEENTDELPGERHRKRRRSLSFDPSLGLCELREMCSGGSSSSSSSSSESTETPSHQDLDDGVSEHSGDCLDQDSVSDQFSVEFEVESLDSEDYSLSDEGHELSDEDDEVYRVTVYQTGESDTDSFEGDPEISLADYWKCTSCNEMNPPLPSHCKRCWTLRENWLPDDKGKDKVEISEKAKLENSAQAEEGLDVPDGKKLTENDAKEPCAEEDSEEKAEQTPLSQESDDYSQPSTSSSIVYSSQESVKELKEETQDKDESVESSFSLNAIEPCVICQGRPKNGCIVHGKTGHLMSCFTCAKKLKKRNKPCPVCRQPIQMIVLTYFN

Binder	T22 IC50 (0% µM), T22 p53 reporter assay without serum [1]	T22 Ic50 (10% µM), T22 p53 reporter assay with 10% fetal calf serum [1]	Kd [2]
Ac-TSF[R8]EYWALL[S5]-NH2 (staple 4-11) [sMTide-02 (capped), Ac-TSFX8EYWALLS5-NH2]	2.75 µM	17.9 µM	
Ac-KK[Ahx]TSF[R8]EYWALL[S5]ENF-NH2 (staple 7-14) [YS-07 (capped), Ac-KK-Ahx-TSFX8EYWALLS5ENF-NH2]	~0.78 µM	9.95 µM	24.4 nM
